Measured values reported in patent US20200165333A1 (University of Pennsylvania, published 2020).

What was measured:
[1] = molecular target: T1, human platelet factor 4 (PF4) (human, UniProt P02776 32-101); experiment: SPR (Biacore), human PF4 immobilized on CM5 chip; antibody expressed in expi-CHO cells
T1 construct: Immobilized on a CM5 chip (Biacore) or on an ELISA plate; also called human PF4
T1 sequence (looked up): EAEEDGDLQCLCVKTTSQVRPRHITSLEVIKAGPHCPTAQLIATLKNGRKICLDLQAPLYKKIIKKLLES
Experimental: (§1) The binding affinity of the mammalian-cell-expressed RTO antibodies to human PF4 immobilized on the surface of a CM5 chip was evaluated using Biacore technology. The humanized antibody (huLight, huHeavy) binds to human PF4 at nM levels (Table 1), which is almost identical to the hybridoma-expressed and mammalian-cell-expressed parental antibody mRTO (mLight, mHeavy).

[2] = molecular target: T1, human platelet factor 4 (PF4); experiment: SPR (Biacore), human PF4 immobilized on CM5 chip; antibody expressed in 293T cells
Experimental: as §1

- Kd [1]: 2 nM
- Kd [2]: 0.75 nM
B1: humanized RTO antibody (huLight, huHeavy) (antibody, V domains shown)
VH: EVQLVESGGGLVQPGGSLRLSCAASGFAFSRYDMSWVRQAPGKGLEWVATITSGDNYTYYPDSVKGRFTISRDNSKNTLYLQMNSLRAEDTAVYYCTRQGLLYYAMDYWGQGTLVTVSS
VL: DIQMTQSPSSLSASVGDRVTISCSASQGINNYLSWYRQKPGKAPKLLIYYTSSLHSGVPSRFSGSGSGTDFTLTISSLQPEDFATYFCQQFSKLPYTFGGGTKVEIKR
notes: Tested as expressed in 293T and in expi-CHO cells; also called huRTO; HuRTO
